Several values for one entry are separate records, joined by “and”; a condition that tells them apart may be missing. Equal values may be shown once.
Experiments:
[1] = target: Endothelial protein C receptor (human) (UniProt Q9UNN8); test: cell-based or functional assay
[2] = target: Protease-activated receptor 1 (human) (UniProt P25116); test: cell-based or functional assay
Protease-activated receptor 1 (human), sequence (P25116 42-425): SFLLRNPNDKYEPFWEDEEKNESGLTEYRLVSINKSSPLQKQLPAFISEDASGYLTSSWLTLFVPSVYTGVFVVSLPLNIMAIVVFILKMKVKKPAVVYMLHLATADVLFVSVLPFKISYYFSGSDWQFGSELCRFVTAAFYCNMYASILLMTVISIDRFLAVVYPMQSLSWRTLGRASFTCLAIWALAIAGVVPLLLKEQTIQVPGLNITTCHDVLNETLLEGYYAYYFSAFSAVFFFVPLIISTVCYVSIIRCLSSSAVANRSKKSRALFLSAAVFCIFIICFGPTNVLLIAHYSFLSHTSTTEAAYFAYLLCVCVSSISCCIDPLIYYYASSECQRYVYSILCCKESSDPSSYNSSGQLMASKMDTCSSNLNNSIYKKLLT

Endothelial protein C receptor (human), sequence (Q9UNN8 18-238): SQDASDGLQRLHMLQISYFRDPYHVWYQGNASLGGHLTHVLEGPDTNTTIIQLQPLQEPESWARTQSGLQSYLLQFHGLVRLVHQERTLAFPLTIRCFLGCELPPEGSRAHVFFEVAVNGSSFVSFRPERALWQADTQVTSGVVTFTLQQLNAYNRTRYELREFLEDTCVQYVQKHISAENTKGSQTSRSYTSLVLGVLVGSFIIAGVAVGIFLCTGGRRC

Row | Substance | inhibition of LPS (100 ng/mL)-mediated HMGB1 release by HUVECs (ELISA) [1] | efficacy relative to APC in inhibiting adherence and migration of THP-1 cells across HMGB1-activated HUVEC monolayer [2]
1 | Activated protein C (from UniProt P04070 43-461) | > 10 nM and 100 nM | –
2 | PCgla/meizothrombin (meizothrombin with its Gla-domain replaced by that of protein C; Factor Xa-activated PCgla/prothrombin-3A) | < 1 nM | 20 to 50 fold

From US20130071375A1
